From patent US11634477 (dated 2023)

B1: C163 (antibody, V domains shown)
VH: QVQLQQWGAGLLKPSETLSLTCAVSGGSLSGFYWTWIRQPPGKGLEWIGETNHFGSTDYKPSLKSRVTISVDMSRNQFSLKVTSVTAADTAVYYCARKPLLHSDLSPGAFDIWGQGTMVTVSS
VL: EIVLTQSPGTLSLSPGERATLSCRASQTVSANYLAWYQQKAGQAPRLLIYGASKRATGIPDRFSGSGSGTDFTLSISRLEPEDFAVYYCQQYVTTPRTFGGGTKVEI
B2: C161 (antibody, V domains shown)
VH: QVQLQQWGAGLLKPSETLSLTCAVSGGSLSGFYWTWIRQPPGKGLEWIGETNHFGSTDYKPSLKSRVTISVDMSRNQFSLIMTSVTAADTAVYYCARKTLLFSDFSPGAFDIWGQGTMVTVSS
VL: EIVLTQSPGTLSLSPGERATLSCRASQTLTANYLAWYQQKPGQAPRLLIYGASKRATGIPDRFSGSGSGTDFTLSISRLEPEDFAVYYCQQYGTTPRTFGGGTKVEI
B3: C162 (antibody, V domains shown)
VH: QVQLQQWGAGLLKPSETLSLTCAVSGGSLSGFYWTWIRQPPGKGLEWIGETNHFGSTDYKASLKSRVTISVGMSRNQFSLKVTSLTAADTAVYYCARKPLLYSDFSPGAFDVWGQGTMVTVSS
VL: EIVLTQSPGTLSLSPGERATLSCRASQTLTANYLAWYQQKPGQAPRLLIYGASKRAAGIPDRFSGSGSGTDFTLSITRLEPEDFAVYYCQQYHTTPRTFGGGTKVEI
B4: C040 (antibody, V domains shown)
VH: not shown
VL: SYELTQPPSVSVAPGQTARITCGGNNIGSKSVHWYQQKPGQAPVLVVYDDSDRPSGIPERFSGSNSGNTATLTISRVEAGDEADYYCQVWDSSSDQGVFGGGTKLTVL
B5: C038 (antibody, V domains shown)
VH: VQLVESGGGVVQPGRSLRLSCAASGFTFNRIAMYWVRQAPGKGLEWVAVISFDGSYEYYAESVKGRFAISRDNSKNTLYLQMNSLRAEDTAVYYCAKSPMGYCTNGVCYPDSWGQGTLVTVSS
VL: NFMLTQPHSVSESPGKTVTISCTGSSGSIASNYVQWYQQRPGSAPTTVIYEDTQRPSGVPDRFSGSIDSSSNSASLTISGLKTEDEADYYCQSYDINSRWVFGGGTKLTVL
B6: C149 (antibody, V domains shown)
VH: QVQLVESGGGVVQPGRSLRLSCAASGFTFSTYGMHWVRQAPGKGLEWVAVISYDGSNKYFADSVKGRFTISRDNSKNTLYLQMNSLRPEDTAVYYCAKVGMEYSSGWYGEEIDFWGQGTLVTVSS
VL: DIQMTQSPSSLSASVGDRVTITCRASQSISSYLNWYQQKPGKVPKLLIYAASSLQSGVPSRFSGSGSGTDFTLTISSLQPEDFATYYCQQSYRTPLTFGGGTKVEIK
B7: C037 (antibody, V domains shown)
VH: QLVQSGPEVKKPGTSVKVSCKASGFTFTSSAMQWVRQARGQRLEWIGWIVVGSGNTNYAQKFQERVTITRDMSTSTAYMELSSLRSEDTAVYYCAAPYCSGGSCNDAFDIWGQGTMVTVSS
VL: not shown
B8: C032 (antibody, V domains shown)
VH: EVQLVQSGAEVKKPGESLKISCKGSGYSFTSYWIGWVRQMPGKGLEWMGIIYPGDSDTRYSPSFQGQVTISADKSISTAYLQWSSLKASDTAMYYCARGVAVDWYFDLWGRGTLVTVSS
VL: QSVLTQPPSVSGAPGQRVTISCTGSSSNIGAGYDVHWYQQLPGTAPKLLIYGNSNRPSGVPDRFSGSKSGTSASLAITGLQAEDEADYYCQSYDSSLSALYVFGTGTKVTVL
B9: C036 (antibody, V domains shown)
VH: QVQLQQWGAGLLKPSETLSRTCAVFGGSFTNYYWSWIRQSPGKGLEWIGEINDSGITNYNPSLKSRVTISVDTSKNQFSLSLRSVTAADTAVYYCARRRSFSRPSSIDYWGQGTLVTVSS
VL: not shown
B10: C160 (antibody, V domains shown)
VH: QVQLVQSGAEVKKPGASVKVSCKASGYTFTSYGISWVRQAPGQGLEWMGWISAYNGNTNYAQKLQGRVTMTTDTSTSTAYMELRSLRSDDTAVYYCARVPASYGDDDYYYYYGMDVWGQGTTVTVSS
VL: SYELTQPPSVSVSPGQTARITCSGDALPKQYAYWYQQKPGQAPVLVIYKDSERPSGIPERFSGSSSGTTVTLTISGVQAEDEADYYCQSADSSGTLWVFGGGTKLTVL

Each binder was assayed against SARS-CoV-2 RBD (SARS-CoV-2, UniProt P0DTC2) (assay: ELISA).
With B1 the EC50 was 1.77 ng/mL. Binder B2 has an EC50 of 1.63 ng/mL. B3 was tested, and the EC50 was 1.18 ng/mL. Binder B4 has an EC50 of 11.1 ng/mL. With B5 the EC50 was 4.69 ng/mL. Work on B6 yielded an EC50 of 1.79 ng/mL. B7 showed an EC50 of 1.93 ng/mL. B8 gave an EC50 of 99.3 ng/mL. Binder B9 has an EC50 of 64.1 ng/mL. Work on B10 yielded an EC50 of 2.54 ng/mL.
